Experimental data taken from article PMC4952014 (2015).

B1: Siglec-1 (recombinant protein used for SPR) (receptor)
chain: SWGVSSPQDVQGVKGSCLLIPCIFSFPADVEVPDGITAIWYYDYSGQRQVVSHSADPKLVEARFRGRTEFMGNPEHRVCNLLLKDLQPEDSGSYNFRFEISEVNRWSDVKGTLVTVTEEPRVPTIASPVELLEGTEVDFNCSTPYVCLQEQVRLQWQGQDPARSVTFNSQKFEPTGVGHLETLHMAMSWQDHGRILRCQLSVANHRAQSEIHLQVKYAPKGVKILLSPSGRNILPGELVTLTCQVNSSYPAVSSIKWLKDGVRLQTKTGVLHLPQAAWSDAGVYTCQAENGVGSLVSPPISLHIFMAEVQVSPAGPILENQTVTLVCNTPNEAPSDLRYSWYKNHVLLEDAHSHTLRLHLATRADTGFYFCEVQNVHGSERSGPVSVVVNHPPLTPVLTAFLETQAGLVGILHCSVVSEPLATLVLSHGGHILASTSGDSDHSPRFSGTSGPNSLRLEIRDLEETDSGEYKCSATNSLGNATSTLDFHANAARLLISPAAEVVEGQAVTLSCRSGLSPTPDARFSWYLNGALLHEGPGSSLLLPAASSTDAGSYHCRARDGHSASGPSSPAVLTVLYPPRQPTFTTRLDLDAAGAGAGRRGLLLCRVDSDPPARLQLLHKDRVVATSLPSGGGCSTCGGCSPRMKVTKAPNLLRVEIHNPLLEEEGLYLCEASNALGNASTSATFNGQATVLAIAPSHTLQEGTEANLTCNVSREAAGSPANFSWFRNGVLWAQGPLETVTLLPVARTDAALYACRILTEAGAQLSTPVLLSVLYPPDRPKLSALLDMGQGHMALFICTVDSRPLALLALFHGEHLLATSLGPQVPSHGRFQAKAEANSLKLEVRELGLGDSGSYRCEATNVLGSSNTSLFFQVRGAWVQVSPSPELQEGQAVVLSCQVHTGVPEGTSYRWYRDGQPLQESTSATLRFAAITLTQAGAYHCQAQAPGSATTSLAAPISLHVSYAPRHVTLTTLMDTGPGRLGLLLCRVDSDPPAQLRLLHGDRLVASTLQGVGGPEGSSPRLHVAVAPNTLRLEIHGAMLEDEGVYICEASNTLGQASASADFDAQAVNVQVWPGATVREGQLVNLTCLVWTTHPAQLTYTWYQDGQQRLDAHSIPLPNVTVRDATSYRCGVGPPGRAPRLSRPITLDVLYAPRNLRLTYLLESHGGQLALVLCTVDSRPPAQLALSHAGRLLASSTAASVPNTLRLELRGPQPRDEGFYSCSARSPLGQANTSLELRLEGVRVILAPEAAVPEGAPITVTCADPAAHAPTLYTWYHNGRWLQEGPAASLSFLVATRAHAGAYSCQAQDAQGTRSSRPAALQVLYAPQDAVLSSFRDSRARSMAVIQCTVDSEPPAELALSHDGKVLATSSGVHSLASGTGHVQVARNALRLQVQDVPAGDDTYVCTAQNLLGSISTIGRLQVEGARVVAEPGLDVPEGAALNLSCRLLGGPGPVGNSTFAWFWNDRRLHAEPVPTLAFTHVARAQAGMYHCLAELPTGAAASAPVMLRVLYPPKTPTMMVFVEPEGGLRGILDCRVDSEPLASLTLHLGSRLVASSQPQGAPAEPHIHVLASPNALRVDIEALRPSDQGEYICSASNVLGSASTSTYFGVRALHRLHQFQQLLWVLGLLVGLLLLLLGLGACYTWRRRRVCKQSMGENSVEMAFQKETTQLIDPDAATCETSTCAPPLG

Columns and labels:
[1] = target: Soc-V1V2SF162 (CHO-S) (bacteriophage T4 | HIV-1 SF162); experiment: SPR; immobilized Siglec-1
[2] = target: Soc-V1V2JR-FL (293F) (bacteriophage T4 | HIV-1 JR-FL); experiment: SPR; immobilized Siglec-1
[3] = target: T1, JR-FL FD trimeric gp145 (HIV-1 JR-FL | bacteriophage T4); experiment: SPR; immobilized Siglec-1
[4] = target: T2, SF162 FD trimeric gp145 (HIV-1 SF162 | bacteriophage T4, UniProt P19551); experiment: SPR; immobilized Siglec-1
[5] = target: T2, SF162 FD trimeric gp145; experiment: SPR; immobilized SF162 gp145
[6] = target: T1, JR-FL FD trimeric gp145; experiment: SPR; immobilized JR-FL gp145
[7] = target: B1; experiment: SPR; immobilized Siglec-1

Row | Binder | Kd [1] [nM] | Kd [2] [nM] | Kd [3] [nM] | Kd [4] [nM] | Kd [5] [nM] | Kd [6] [nM] | Kd [7] [nM]
1 | B1 | 1.96 | 4.34 | 0.28 | 0.441 | 8.26 | 2.9 | 
2 | JR-FL monomeric gp120 (natural protein, N-glycosylated and sialylated (293F-expressed). Limits are not printed: start is the candidate's CHAIN start at 32, end is the residue before gp41 at 503. A vector-derived N-terminus from the CD5 leader, and a C-terminus affected by the cleavage-site change, are possible but not stated.) not shown |  |  |  |  |  |  | 4.13
